The record followed here is patent CN113521276A (JIANGSU QUANXIN BIOMEDICAL CO LTD, dated 2021).

The test concerns the target T1, 人干扰素α受体1(IFNAR1) (human, UniProt P17181 28-436).
T1 construct: Soluble antigen run over captured antibody in the Biacore assay; also called 人IFNAR1; Human Interferon alpha/beta Receptor 1
T1 sequence: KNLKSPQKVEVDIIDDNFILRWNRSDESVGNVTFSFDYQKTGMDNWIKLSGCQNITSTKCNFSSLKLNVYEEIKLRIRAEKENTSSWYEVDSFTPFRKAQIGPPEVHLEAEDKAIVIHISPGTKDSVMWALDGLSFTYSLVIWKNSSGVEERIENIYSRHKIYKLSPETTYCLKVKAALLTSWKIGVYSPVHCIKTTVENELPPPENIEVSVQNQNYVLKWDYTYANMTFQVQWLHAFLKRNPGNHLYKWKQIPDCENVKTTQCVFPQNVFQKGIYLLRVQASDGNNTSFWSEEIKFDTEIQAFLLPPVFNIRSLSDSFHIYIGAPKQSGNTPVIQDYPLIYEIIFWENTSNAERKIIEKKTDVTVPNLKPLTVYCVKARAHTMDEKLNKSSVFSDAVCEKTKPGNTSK
Put plainly: SPR, Biacore T200, antibody captured on Protein A chip, antigen in solution, 25℃, 1:1 model, mean of three runs. (In general: Surface plasmon resonance follows binding to a sensor surface in real time, without labels.)

B1: QX006N(HZD1203-45-IgG4.1) (antibody, V domains shown)
VH: EVQLVESGGGLVQPGGSLRLSCAASGFSLSSYYMTWVRQAPGKGLEWVSVINVYGGTYYASWAKGRFTISRDNSKNTLYLQMNSLRAEDTAVYYCAREDVAVYMAIDLWGQGTLVTVSS
VL: AIQMTQSPSSLSASVGDRVTITCQASQSISNQLSWYQQKPGKAPKLLIYDASSLASGVPSRFSGSRSGTKFTLTISSLQPEDFATYYCLGIYGDGADDGIAFGGGTKVEIK
notes: Humanised rabbit antibody from clone 1203#; also called 抗人干扰素α受体1(IFNAR1)单克隆抗体
The Kd is the concentration at which binding is half-saturated. As a reminder, the koff is the rate constant with which the complex falls apart. Higher therefore signals a short-lived complex. In general, kon refers to a measure of how fast the partners come together. Low readings indicate slower complex formation, high ones faster complex formation. Regarding B1, binding was characterised by a dissociation constant (Kd) of 0.108 nM, the koff amounted to 3.76e-05 s⁻¹ and the kon was found to be 347000 M⁻¹ s⁻¹.
